Like-named read-outs stand apart in the source and are kept apart here.

Consider 7 molecules from article doi:10.1101/2022.04.29.490116.

The target in data set [1] is StbA of plasmid R388, full length, C-terminally (His)6-tagged (enterobacterial plasmid R388). The data set can be described thus: SEC. (In general: Size exclusion chromatography separates by hydrodynamic size, large species first.)
The target in data set [2] is T1, StbA1-75 (Escherichia coli plasmid R388, UniProt Q6I6C4 1-75).
T1 sequence: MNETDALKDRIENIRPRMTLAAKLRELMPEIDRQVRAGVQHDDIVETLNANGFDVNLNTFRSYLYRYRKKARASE
As to the kind of experiment: EMSA.

Data set [3] concerns the target T2, StbA (Escherichia coli plasmid R388, UniProt Q6I6C4 1-141).
T2 sequence: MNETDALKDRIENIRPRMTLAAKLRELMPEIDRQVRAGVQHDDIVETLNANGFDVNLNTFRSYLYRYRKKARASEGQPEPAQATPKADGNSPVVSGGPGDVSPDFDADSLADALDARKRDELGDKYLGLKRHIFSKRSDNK
The data set can be described thus: EMSA. Background: A gel shift assay detects complexes by their altered migration in electrophoresis.

In data set [4] the target is T1, StbA1-75. As to the kind of experiment: EMSA. The source holds these as a separate data set.
Data set [5] has as its target T2, StbA. As to the kind of experiment: EMSA. The source holds these as a separate data set.
Data set [6] addresses T2, StbA. The data set can be described thus: EMSA. The source holds these as a separate data set.
The target in data set [7] is T2, StbA. As to the kind of experiment: EMSA. The source holds these as a separate data set.
Data set [8] addresses T2, StbA. As to the kind of experiment: EMSA. The source holds these as a separate data set.
Data set [9] concerns the target T1, StbA1-75. As to the kind of experiment: EMSA. This is another data set of the same source.
The target in data set [10] is T2, StbA. As to the kind of experiment: EMSA. The source holds these as a separate data set.

Turning to “StbA of plasmid R388, full length, C-terminally (His)6-tagged (natural protein)”, the stoichiometry N (usually a count of units in the complex or per binding partner) in data set [1] stood at 2.

B1: stb5a (dsDNA)
DNA 1: CCGTTTTAGCTCATTTTCTGCATCATTGTAGCACCATCATAGCATTATAGTTGCATCATTGCTGCACGATAACCCAATGC
DNA 2: GCATTGGGTTATCGTGCAGCAATGATGCAACTATAATGCTATGATGGTGCTACAATGATGCAGAAAATGAGCTAAAACGG
In the case of B1, the binding result in data set [2] and in data set [3] was “binds” throughout.

B2: stb3 (dsDNA)
DNA 1: TAGCTCATTCTGTTCTTGCTTGCTGCATCATCACTGCATCATAGCTGCATCATCAATGCCGATCTAGCTCATTACTGTTC
DNA 2: GAACAGTAATGAGCTAGATCGGCATTGATGATGCAGCTATGATGCAGTGATGATGCAGCAAGCAAGAACAGAATGAGCTA
Turning to B2, the binding result in data set [4] and in [5] was “binds” each time.

B3: stb5b (dsDNA)
DNA 1: TTGCCTGCATCATAGCTGTCCTATGACTGCATCACATTTGCATCATACATGCATTATTTC
DNA 2: GAAATAATGCATGTATGATGCAAATGTGATGCAGTCATAGGACAGCTATGATGCAGGCAA
In the case of B3, in data set [6], the binding result was “binds”.

B4: stb5 (dsDNA)
DNA 1: TCTGTTCTTGCTTGCTGCATCATCACTGCATCATCACTGCATCATCACTGCATCATCACTGCATCATATGCCGATCTAGC
DNA 2: GCTAGATCGGCATATGATGCAGTGATGATGCAGTGATGATGCAGTGATGATGCAGTGATGATGCAGCAAGCAAGAACAGA
As to B4, in [7], the binding result is given as “binds”.

B5: stb0 (dsDNA)
DNA 1: CCTTAAACGGCCTATTGTTTCCAAGCGGAGTGACAACAAATGAAAGTAGCTGTGCTTAAGTATTCAACAAAGCCGCCGTC
DNA 2: GACGGCGGCTTTGTTGAATACTTAAGCACAGCTACTTTCATTTGTTGTCACTCCGCTTGGAAACAATAGGCCGTTTAAGG
For the molecule B5, the binding result in data set [8] is given as “no binding”.

B6: stb2 (dsDNA)
DNA 1: CCGTTCTAGCTCATTCTGTTCTTGCTTGCTGCATCATCACTGCATCATCCCAATGCCGATCTAGCTCATTACTGTTCTAT
DNA 2: ATAGAACAGTAATGAGCTAGATCGGCATTGGGATGATGCAGTGATGATGCAGCAAGCAAGAACAGAATGAGCTAGAACGG
Regarding B6, the binding result in data set [9] and in data set [10] was “binds” each time.
